The nanobody polyreactivity screen of Harvey et al. (2022)

Assay: yeast display, Sf9 membrane polyspecificity reagent, FACS + sequencing; frameworks hold sequencing errors
Method in brief: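 A synthetic nanobody library was expressed on Saccharomyces cerevisiae BJ5465 by galactose induction for 36–48 hours. The library was stained for 1 hour at 4 °C with 10% biotinylated, detergent-solubilized Sf9 membrane reagent and enriched with streptavidin microbeads before FACS. Low and high (top ~1%) gates were set on anti-HA fluorescence for expression and streptavidin fluorescence for reagent binding, and each polyreactivity label reflects the gate of origin.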

Row | Sequence | polyreactivity (PSR sort gate)
1 | QVQLVESGGGLVQAGGSLRLSCAASGSTLYYYAMGWYRQAPGKERELVAAISSGGRTYYADSVKGRFTISRDNAKNTVYLQMNSLKPEDTAVYYCNAVRYQKIFDYWGQGTQVTVSS | high polyreactivity
2 | QVQHEESGGGLVQAGGRLRLSCAASGRTFFSNAMGWYRQAPGKERELVAAISNGDNTYYADSVKGRFTISRDNAKNTVYLQMNSLKPEDTAVYYCATAYPEWAVWGYDYWGQGTQVTVSS | low polyreactivity
3 | QVQLVESGVGLVQAGGSLRLSCAASGRTFTPYAMGWYRQAPGKEREFVAAISIVGRTKYADSVKGRFTISRDNAKNTVYLQMNSLKPEDTAVYYCNAQDSRDRKFYWGYTRGHWGLGTQVTVSS | low polyreactivity
4 | QVQLVESGGGLVQAGGSLRLSCAATGRTLKYNAMGRYRKAPGKERELVAAISYSGSSTYYADSVKGRFTISRDNAKNTVYLQMHSLKPEDTAVYYCNTARPTAAYDYWGQGTQVTVSS | low polyreactivity
5 | QVQLVESGGGLVQAGGSLRLSCAASGSTFDYYAMGWYRQAPGKERELVAVISSSGGSTYYADSVKGRFTISRDNAKNTVYLQMNSLKPEDTAVYYCAALYRNYGSSYAYYYWGQGTQVTVSS | low polyreactivity
6 | QVKLVESGGGLVQAGGRLRLSCAASGFTFPSNAMVWYRHAPGKEREMVAAISSTDSTNYADSVMGRFTISRDNAKNTVYLQMNSLNPEDTAVYYCAKRYPRYRYNTRGNDYWGQGTQVTVSS | low polyreactivity
7 | QLKHEESRGGLVQAGGSLRLSCAASGSTIYTYVMGWYRQAPGNERELVAAISWSGSSTYYADSVKGRFTISRDNAKNTVYLHMNSLKPEDTAVYYCNADPSQHTSAGYSSYEYYYWGQGTQVTVSS | low polyreactivity
8 | QVQLVESGGGVVQAGGSLRLSCAASGRTFMVNAMGWYRQAPGKERELVAAISQRGGSTDYADSVKGRFTISRDNAKNTVYLQMNSLIPEDTAVYYCAADSLRGSAPTYYSTLEYWGQGTQVTVSS | low polyreactivity
9 | QVQLVESGGGLVQAGGSLRLSCAASGRTFIYYAMGWYRQAPGKEREFVAIISWNGTSTNYADSVKGRFTISRDNAKNTVYLQMNSLKPEDTAVYYCAASFWTDYYRYDYWGQGTQVTVSS | low polyreactivity
10 | QVQLVESGGGLVQAGGSLRLSCAASGFTFGEYAMGWYRQEPGKERELVATISSGVGTNYADSVKGRFTISRDNAKNTVYLQMNSLKPVDTAVYYCNARGRGSDVRVYVDEGDYWGQGTQVTVSS | low polyreactivity
11 | QVQLVESGGGLFQAGGSLSLRCAASGSSFDDYTMGWYRQATGKETELLAAISSAGSTNYADSVKGRFTISRDNAKNTVYLQMNILKPEDTAVYSFAAQVHPLRYDYWGQGTQVTVSS | low polyreactivity
12 | QVQLVESGGGLVQAGGSLRLSCAASGSIIGVNAMGWYRQAPGKERELVAAISSTGGSTYYADSVKGRFTLSRDNAKNTVYLQMNSLKPEDTAVYSCNTDYSKSIGDGYAGFDYWGQGTQVTVSS | low polyreactivity
13 | QVQLVESRGGLVQAGGSLRLSCAASGFIFNYYVMGRYRQAPGKERELVAGITKRGDRTYYADSVKGRFTISRDNAKNTVYLQMNSLKPEDTAVYYCAALARSFANSYGYWGQGTQVTVSS | high polyreactivity
14 | QVQLVESGGGLVQAGGSLRLSCAASGLIFGFYTMGWYRQAPGKERELVAVISSSGGSTYYADSVKGRFTISRDNAKNTVYLQMNSLKPEDTAVYYCAARAYPVRYRRRDYWGQGTQVTVSS | high polyreactivity
15 | QVQLLESGGGLVQAGGSHRLSCAASGRIFGSNAMGWYRQAPGKERELVAAITRGGSTNYADSVKGRFTISLDNAKNTVYLQMNSLKPEDTAVYYCAVRWYRKYNYWGQGTQVTVSS | high polyreactivity
16 | QVQLVESGGGLVQAGGSLRLICAASGLTFISYAMGWYRQAPGKERELVAAITYSGGSTYYADSVKGRFTISRDNAKNTVYLQMNSLKPEDTAVYYCAVEIPGLLWYLPTYDYWGQGTQVTVSS | low polyreactivity
17 | QVQLVESGGGLVQAGGSLRLSCAASGSIFWLYAMGWYRQAPGKERELVAAITWSGGRTYYADSVKGRFTISRDTAKNTVYLQMNSLKPEDTAVYYCARRQWPWYSNPARGGKYDYWGQGTQVTVSS | low polyreactivity
18 | QVQLVESGGGLVQAGGSLRLSCAASGSIFSAYAMGWYRQAPRKEREFVAAITRRGGNTYYADSVKGRFTISRDNAKNTVYLQMNSLKPEDTAVYYCAAGFYYVYVWLGEYWGQGTQVTVSS | low polyreactivity
19 | QVQLVQSVGGLVQAGGSLRLSSAASGSTFTVYAMGWYRQAPGKERELVAAISWRGGSTYYADSVKGRFTISRDNAKKTVYLQMNSLKPEDTAVYYCAADGLDIAPYGYGYWGQGTQVTVSS | low polyreactivity
20 | QVQLVESGGGLVQAGGSLRLSCAASGLIFSYYAMGWYRQAPGKEMELVAAITSDDSTYYADSVKGRFTISRDNAKNTVYLQINSLKPEDTAVYYCAARYTMYDTGESSRTYTGFNYWGQGTQVTVSS | low polyreactivity
21 | QVQLVESGGGLVQAGGSLRLSCASSGRTFEDYTMGWYRQAPGKVWEWVAAITGGGSTNYADSVKGRFTISRDNAKNTVYLQMYSQKPEDTAVYYCAAHYRYNWFRRYSYWGQGTQETVSS | high polyreactivity
22 | QVQLVESGGGLVQAGGSIRLSCAASGVIFYGNSIGWYRQAPGKERELVAAISRRGGRTYYADSVKGRFTNSRDNAKITVYLQMNSLKPEDTAVYYCAADVIYSGDYWGQGTQVTVSS | high polyreactivity

Row | Sequence | polyreactivity (PSR sort gate)
23 | QVQLVESGGGLVQAGGSLRLSCAASGNIFYLYAMGCYRQAPGKEREFSTSYADSVKGRFTISRDNAKNTVYLQMNSLKPEDTAVYYCAAYKSRGPYYYLFDYWGQGTQVTVSS | low polyreactivity
24 | QVQLQESGGGLVQAGGSLRLSCAASGYNSHADEMGWYRQAPGKEHELVASISNGGSTNYADSVKGRFTISRDNANNTVYLQMNSLKSEDTAVYYCADWTGEVDIHYYWGQGTQVTVSS | low polyreactivity
25 | QVQLVESGGGLVQAGGSLRLSCAASGSTFSYNDMGWYRQAPGKERELVAAISSGGSTKYADSVKGRFTISRDNAKNTVYLQMNSLKPEDTAVYYCNVDVKGRPTFWSPFGRFDYWGQGTQVTVSS | high polyreactivity
26 | QVQLVESGGGLVQAGGSLRLSCAASGRILDANDMGWYRQAPGKERELVAGINSGGSTYYADSVKGRFTISRDNAKNTVYLQMNSLKPEDTAVYYCAAGGVSAKYDYWGQGTQVTVSS | low polyreactivity
27 | QVQLEESGGGLVQAGGSLRLRCAASGRTFHAYVMGWYRQAPGKERELVADISSGGDTYADSVKGRFTISRDNAKNTVYLQMNSLKPEDSAVYYCAVDLIQDESGYWGQGTQVNVSS | low polyreactivity
28 | QVQLVESGGGLVQAGGSLRLSCAASGITFADNAMGWYRQAPGKERELVASISKSSGSTYYADSVKGRFTISRDNAKNTVYLQMNSLKPEDTAVYYCATDPYVRRSPSWYDYWGQGTQVTVSS | low polyreactivity
29 | QVQLVESGGGLVHAGGSLRLSCAASGRTFDIYAMGWYRQAPGKERELVAAISSGGSTYYADSVKGRFRISRDNAKKTVYLQKNSLKPEDTAVYYCAVRWYDQVSRRGIGYYWGQGTQVTVSS | low polyreactivity
30 | PVQLVESGGGLVQAGGSLRLSCAASGITIISYAMVWYRQAPGKERELVAAITKSGGRTYYADSVKGRFTISRDNAKNTVYLQMNSLKPEDTAVYYCAAYHLRDNRIGGGYWGQGTQVTVSS | high polyreactivity
31 | QVQLVESGGGLVQAGGSLRLSCAASGSTFRFNTMGWYRQAPGKERGLVACIAAGTTTNYADSVKGRFTISRDNAKNTVYLQMNSLKPEDAAVYYCAALNAFNTGHWYWGQGTQVTVSS | low polyreactivity
32 | QVQLVESGGGLVQAGGSLRLSCAASGRIFPYCAMGWYRQAPGKEREFVAAITSSGGSTYYADSVKGRFTISRDNAKNTVYLQMNSLKREDTAVYFCFAVRHYALYAGRPYDYWGQGTEVTVSS | low polyreactivity
33 | QVQLVESGGGLVQAGGSLRLSCAASGSIFDSYAMGWYRQAPGKERELVAAISRIGGTTYYADSVKGRFTISRDNAKNTVYLQMNTLKPEDTAVYYCAAGPLLPRYSQYGYWGLGTQVTVSS | low polyreactivity
34 | QVQLVESGGGLVQAGGSLRLSCAASGSTFLGNVMGWYRQAPGKERELVAAITSTGGNTYYADSVKGRFTISRDNAKNSVYLQMNSLKPEDTAVYYCAKKYVWTHNYWGQGTQVTVSS | low polyreactivity
35 | QDQLVESGGGLVQAGGSLRLSCHSSGFIFTDYAMGWYRQAPGKERELVARITSGGASTYYADSVKGRFTISRDIAKNTVYLQMNSLKPEDTAVYYCAAQARCWGYVYWGQGTQVTVSS | low polyreactivity
36 | QVQLEESGGGLVQAGGSLRLSCAASGRNISRNAMGGYRQPPGKERELVAAITQSGTSTYYADSVKGRFTLSRDNAKNTVYLQMKSLIPEDTAVYYCNAYRQYRYDYWGQGSQVTVSS | low polyreactivity
37 | QVQLQESGGGLVQAGGSLLSCAASGTISWVDEMGWYRQAPGNERELVAGIAGGGNTNYADSVKGRFTISRDNAKNTVYLLMNSLDTAVYYCAVVGFGRGNHIYWGQGTQVTVSS | high polyreactivity
38 | QVQLVESGGGLVQAGGSLRLSCAASGRTFVSYVMGWYRQAPGKERAFVAAISRSGGNTYYADSVKGRFTMSRDNAKNTVYLQMNSLKPEDTAVDYCAAKLGPLVYDHDYWGQGTQVTVSS | high polyreactivity
39 | QVQLVESGGGLVQAGGSLRLSCAASGSTFRYNAMGWYRQAPGKERELVAAISSGSSTNYADSVKGRFSISRDNAKNTVYLQMNSLKPEDTAVYYCAAQPGYYDDFYYWGQGTQVTVSS | low polyreactivity
40 | QVQLVESGGGLVHAGGSLRLSCAASGSTFDKYAMGWYRQAPGKERELVAAITWGGGSTYYADSVKGRFTISRDYAKNTVYLQMNSLKPEDTAVYYCNAYRVYAWIEYNYWGQGTQVTVSS | low polyreactivity
41 | QVQLVESGGGLVQAGGSLRLSCAASGRTFGYNVMGWYRQAPGKERELVADITSTSSTSYADSVKGRFTISRDNAKNTVYLQMNSLKPEDTAVYYCAAYYYFFRRYSWRLSGDYWGQGTQVTVSS | low polyreactivity
42 | QVQLVESGGGLVQAGGSLSLSCAASGRILFRYGMGWYRQAPGKERELVARISWSGGNTHYADSVKGRFTISRDNAKNTVYLQMNSLKPEDTAVYYCNAYYTYWYPRYDYWGQGTQVTVSS | low polyreactivity
43 | QVQLVESGGGLVQAGGSLRLSCAASGFIFDSYAMGWYRQAPGKERELVAAITYSGSSTYYADSVKGRFTISRDNAKNTVYLQMNSLKPEDTAVYYCAAVWRYSHLYGYWGQGTQVTVSS | high polyreactivity
